Consider 2 molecules from patent publication US9320812.

For assay [1], the target named is T1, human ephrin-A4 (human, UniProt P52798).
T1 chain: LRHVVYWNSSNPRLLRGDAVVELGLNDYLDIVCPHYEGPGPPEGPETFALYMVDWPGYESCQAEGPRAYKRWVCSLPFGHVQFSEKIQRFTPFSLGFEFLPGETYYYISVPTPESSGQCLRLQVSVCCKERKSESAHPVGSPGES
In words: SPR. A general note: Surface plasmon resonance follows binding to a sensor surface in real time, without labels.

The target of assay [2] is T1, human ephrin-A4. In words: FACS.

B1: SC4.47 (antibody, V domains shown)
VH: EVQLQQSGPELVKPGASVKISCTASGYTFTYFYMNWVKQSQGKSLEWVGQINPNNGGTAYNHKFRGKTTLTVDKSSNTAFMELRSLTSEDSAVYFCARWVGTHYFDYWGQGTTLTVSS
VL: DIVLTQSPASLPVSLGQRATISCRASQSVSSSSYTYIHWYQQKPGQPPKLLINFASNLESGVPARFSVSGSGTDFTLNIHPVEGEDTATYYCQHSWEIPPTFGGGTKLEIK
By Kd is commonly meant the equilibrium constant for the complex coming apart. Higher therefore signals lower affinity. In the assay with human ephrin-A4 [1], B1 showed a Kd of 1.1 nM.

B2: EphB4-Fc (protein)
chain: LEETLLNTKLETADLKWVTFPQVDGQWEELSGLDEEQHSVRTYEVCDVQRAPGQAHWLRTGWVPRRGAVHVYATLRFTMLECLSLPRAGRSCKETFTVFYYESDADTATALTPAWMENPYIKVDTVAAEHLTRKRPGAEATGKVNVKTLRLGPLSKAGFYLAFQDQGACMALLSLHLFYKKCAQLTVNLTRFPETVPRELVVPVAGSCVVDAVPAPGPSPSLYCREDGQWAEQPVTGCSCAPGFEAAEGNTKCRACAQGTFKPLSGEGSCQPCPANSHSNTIGSAVCQCRVGYFRARTDPRGAPCTTPPSAPRSVVSRLNGSSLHLEWSAPLESGGREDLTYALRCRECRPGGSCAPCGGDLTFDPGPRDLVEPWVVVRGLRPDFTYTFEVTALNGVSSLATGPVPFEPVNVTTDREVPPAVSDIRVTRSSPSSLSLAWAVPRAPSGAVLDYEVKYHEKGAEGPSSVRFLKTSENRAELRGLKRGASYLVQVRARSEAGYGPFGQEHHSQTQLDESEGWREQLA
For B2, in the assay with human ephrin-A4 [2], the binding result was “no binding”.
